T1: human DC-SIGN (Homo sapiens, UniProt Q9NNX6)
T1 construct: expressed in transfected cells
T1 sequence (Q9NNX6 1-404): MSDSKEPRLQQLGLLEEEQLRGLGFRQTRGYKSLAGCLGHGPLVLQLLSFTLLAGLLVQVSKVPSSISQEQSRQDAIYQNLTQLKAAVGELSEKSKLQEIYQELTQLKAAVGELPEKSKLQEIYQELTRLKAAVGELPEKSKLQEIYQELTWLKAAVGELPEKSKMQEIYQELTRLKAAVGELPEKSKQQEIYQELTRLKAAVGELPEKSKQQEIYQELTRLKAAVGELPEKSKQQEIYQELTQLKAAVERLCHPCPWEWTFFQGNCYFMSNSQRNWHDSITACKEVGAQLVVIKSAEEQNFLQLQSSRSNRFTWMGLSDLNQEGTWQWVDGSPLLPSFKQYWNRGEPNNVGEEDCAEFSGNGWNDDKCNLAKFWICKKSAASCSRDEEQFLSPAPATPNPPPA

T2: human L-SIGN (Homo sapiens, UniProt Q9H2X3)
T2 construct: expressed in transfected cells; host or cells: K562, retroviral transduction
T2 sequence (Q9H2X3 1-399): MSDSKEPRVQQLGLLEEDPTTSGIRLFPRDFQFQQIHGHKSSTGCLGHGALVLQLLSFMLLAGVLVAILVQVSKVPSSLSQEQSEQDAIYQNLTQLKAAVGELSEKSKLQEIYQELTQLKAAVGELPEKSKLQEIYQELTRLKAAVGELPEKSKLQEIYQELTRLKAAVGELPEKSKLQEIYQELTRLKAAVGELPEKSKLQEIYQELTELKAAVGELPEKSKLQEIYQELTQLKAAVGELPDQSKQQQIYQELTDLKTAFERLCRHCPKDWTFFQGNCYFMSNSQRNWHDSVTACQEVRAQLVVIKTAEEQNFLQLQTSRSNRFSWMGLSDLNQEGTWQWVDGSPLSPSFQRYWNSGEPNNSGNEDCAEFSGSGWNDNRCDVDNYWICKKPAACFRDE


Columns and labels:
human DC-SIGN [1] = target: T1, human DC-SIGN; assay: FACS binding to K562 cells expressing human DC-SIGN; details: FACS MFI
Experimental: (§1) The affinity of various antibodies and ADCs to DC-SIGN and its species orthologues was determined using FACS. Purified IgGs were titrated to determine EC50 values for binding to cell surface expressed DC-SIGN.
(§2) For this purpose, human DC-SIGN expressing or cynomolgus monkey DC-SIGN expressing stable CHO cell lines or K562 expressing DC-SIGN or K562 expressing L-SIGN cell lines were checked for density and viability using VICELL (Beckman Coulter), and washed once with 4° C. PBS. Cells were stained with DAPI (0.5 ug/mL) diluted in PBS for 30 min on ice. Cells were diluted into 4° C. FACS buffer (PBS, 10 mM EDTA, 2% FBS). 125 μl of cells were seeded (10,000 cells/well) into 96-well v-bottom plates (Nunc cat#442587) and centrifuged for 4 min at 1500 rpm at 4° C. Supernatant was removed. Cells were incubated with a serial dilution of each anti-DC-SIGN antibody in FACS buffer at concentrations ranging across several logs with a top concentration no higher than 50 μg/mL for 60 minutes at 4° C. Following incubation, cells were spun down (1500 rpm, 4 min, 4° C.) and washed two times with FACS buffer. A fluorophore-conjugated anti-hFc gamma-AF-647 (Southern Biotechnology) detection antibody was added at 1:400 and samples were incubated for 1 h on ice in the dark. Following incubation, FACS buffer was added, and the cells were spun down (1500 rpm, 4 min, 4° C.) and washed two times with FACS buffer. After the final wash, cells were resuspended in Fixative Buffer (Biolegend, 420801) and 90 μl of FACS buffer followed by readout on the flow cytometry machine (BD LSRFortessa Cell Analyzer; Cat #647177). Geometric Mean fluorescence intensity (MFI) of live, single cells was calculated in Flowjo 10.4.2 and exported into Graphpad Prism7 for EC50 determination.

human L-SIGN = target: T2, human L-SIGN; assay: FACS binding to K562 cells expressing human L-SIGN (selectivity); details: FACS MFI
Experimental: as §1, §2
Selectivity was assessed by measuring apparent binding affinities to isogenic cell pairs engineered to overexpress DC-SIGN as well as cell lines expressing DC-SIGN paralog L-SIGN.

human DC-SIGN [2] = target: T1, human DC-SIGN; assay: FACS binding to CHO cells stably expressing human DC-SIGN; details: FACS MFI, average
Experimental: as §1, §2

[3] = system: cynomolgus monkey DC-SIGN; assay: FACS binding to CHO cells stably expressing cynomolgus monkey DC-SIGN; details: FACS MFI, average
Experimental: as §1, §2
In a similar experiment the antibodies were tested for cross-reactivity using engineered isogenic matched cell line.

[4] = system: transgenic mice expressing human DC-SIGN gene (Tg+); assay: Plasma cytokine production in transgenic mice expressing human DC-SIGN (ELISA / MesoScaleDiscovery); format: in vivo, mouse
Experimental: FIGS. 5A-5E show exemplary data on DC-SIGN immunoconjugates inducing cytokine production in Tg+ mice. […] Plasma levels were analyzed by ELISA (IP-10 and IFNβ) or MesoScaleDiscovery Multiplex analysis (all other analytes). **** denotes p value of <0.0001 using an ANOVA with Tukey's test compared to Tg-2B2 hlgG1 DAPA C1 group.
Mice were bled 6 hours after dosing to collect plasma for analysis of circulating cytokine levels.

[5] = system: CD11c+ dendritic cells of Tg+ mice; assay: Dendritic cell activation in DC-SIGN Tg+ mice (spleen, flow cytometry); format: in vivo, mouse
Experimental: Spleens were harvested 24 hours post dose and analyzed by flow cytometry to look at CD11c+ dendritic cells.

Chain of cynomolgus monkey DC-SIGN (as listed by the source): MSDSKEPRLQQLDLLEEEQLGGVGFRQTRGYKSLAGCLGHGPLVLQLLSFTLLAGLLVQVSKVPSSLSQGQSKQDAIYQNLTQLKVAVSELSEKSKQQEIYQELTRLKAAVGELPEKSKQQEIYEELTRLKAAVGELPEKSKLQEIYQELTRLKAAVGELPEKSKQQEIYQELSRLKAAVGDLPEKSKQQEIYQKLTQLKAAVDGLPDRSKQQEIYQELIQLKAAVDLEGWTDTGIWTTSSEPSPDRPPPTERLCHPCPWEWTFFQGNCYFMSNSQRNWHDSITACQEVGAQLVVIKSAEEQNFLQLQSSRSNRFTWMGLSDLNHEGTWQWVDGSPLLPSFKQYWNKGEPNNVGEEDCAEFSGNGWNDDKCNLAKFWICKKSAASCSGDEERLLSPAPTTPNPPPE

Molecule	human DC-SIGN K562 EC50 (human DC-SIGN [1]) [mg/L]	human L-SIGN K562 EC50 (human L-SIGN) [mg/L]	human DC-SIGN CHO EC50 (ug/mL) ave. (human DC-SIGN [2]) [µg/mL]	cyno DC-SIGN CHO EC50 (ug/mL) ave. [3] [µg/mL]	circulating plasma IL-12p70 [4]	circulating plasma IP-10 [4]	CD86 upregulation on dendritic cells (DC activation) [5]
958N05 S93A: optimization of sequences by removal of post-translational modifications, non-preferred sites; substitutions made by site directed mutagenesis (antibody) heavy: QVTLRESGPALVKPTQTLTLTCTFSGFSLSTSGISVSWIRQPPGKALEWLALIDWDDDKYYSTSLKTRLTISKDTSKNQVVLTMTNMDPVDTATYYCARTPSGSYGRYFDLWGRGTLVTVSSASTKGPSVFPLAPSSKSTSGGTAALGCLVKDYFPCPVTVSWNSGALTSGVHTFPAVLQSSGLYSLSSVVTVPSSSLGTQTYICNVNHKPSNTKVDKRVEPKSCDKTHTCPPCPAPELLGGPSVFLFPPKPKDTLMISRTPEVTCVVVAVSHEDPEVKFNWYVDGVEVHNAKTKPREEQYNSTYRVVSVLTVLHQDWLNGKEYKCKVSNKALAAPIEKTISKAKGQPREPQVYTLPPSREEMTKNQVSLTCLVKGFYPCDIAVEWESNGQPENNYKTTPPVLDSDGSFFLYSKLTVDKSRWQQGNVFSCSVMHEALHNHYTQKSLSLSPGK light: DIQLTQSPSTLSASVGDRVTITCRASQSISNWLAWYQQKPGKAPKLLIYKASSLESGVPSRFTGSGSGTEFTLTISSLQPDDFATYYCQQYNAYWTFGQGTKVEIKRTVAAPSVFIFPPSDEQLKSGTASVVCLLNNFYPREAKVQWKVDNALQSGNSQESVTEQDSKDSTYSLSSTLTLSKADYEKHKVYACEVTHQGLSSPVTKSFNRGEC	0.060	>10	0.13	0.16	–	–	–
960K03 N92Q: optimization of sequences by removal of post-translational modifications, non-preferred sites; substitutions made by site directed mutagenesis (antibody) heavy: QVTLRESGPALVKPTQTLTLTCTFSGFSLSTGGMSVSWIRQPPGKALEWLALIDWDDDKYYSTSLKTRLTISKDTSKNQLVLTMTNMDPVDTATYYCARAHSGSYFDFWGQGTLVTVSSASTKGPSVFPLAPSSKSTSGGTAALGCLVKDYFPCPVTVSWNSGALTSGVHTFPAVLQSSGLYSLSSVVTVPSSSLGTQTYICNVNHKPSNTKVDKRVEPKSCDKTHTCPPCPAPELLGGPSVFLFPPKPKDTLMISRTPEVTCVVVAVSHEDPEVKFNWYVDGVEVHNAKTKPREEQYNSTYRVVSVLTVLHQDWLNGKEYKCKVSNKALAAPIEKTISKAKGQPREPQVYTLPPSREEMTKNQVSLTCLVKGFYPCDIAVEWESNGQPENNYKTTPPVLDSDGSFFLYSKLTVDKSRWQQGNVFSCSVMHEALHNHYTQKSLSLSPGK light: DIQMTQSPSTLSASVGDRVTITCRASQRISNWLAWYQQKPGKAPKLLIYKASSLESGVPSRFSGSGSGTEFTLTISSLQPDDFATYYCQQFQSYWTFGQGTKVEIKRTVAAPSVFIFPPSDEQLKSGTASVVCLLNNFYPREAKVQWKVDNALQSGNSQESVTEQDSKDSTYSLSSTLTLSKADYEKHKVYACEVTHQGLSSPVTKSFNRGEC	0.021	>10	0.08	0.04	–	–	–
2B2 (DAPA) DAR2 C1 (conjugate) VH: QVQLVQSGAEVKKPGASVKVSCKASGYTFTNYGINWVRQAPGQRLEWMGYIYIGNDYTEYNERFKGRVTITSDTSASTAYMELSSLRSEDTAVYYCARLYYGSSLYSYAMDYWGQGTTVTVSS VL: DIVMTQSPLSLPVTPGEPASISCRSSKSLLHSSGNTYLYWFLQKPGQSPQLLISRMSNLASGVPDRFSGSGSGTDFTLKISRVEAEDVGVYYCMQHLEYPYTFGGGTKVEIK	–	–	–	–	induced	induced	induced DC activation
